Data from publication PMC7336453, “Inhibition of multiple defense responsive pathways by CaWRKY70 transcription factor promotes susceptibility in chickpea under Fusarium oxysporum stress condition”.

Tests used:
[1] = molecular target: T1, His6-CaWRKY40 (Cicer arietinum, UniProt A0A1S2YMJ3 1-315); assay: EMSA; 200 ng protein; competed by 20 molar excess cold probe; 20 mM HEPES pH 7.5, 100 mM KCl, 0.2 mM EDTA, 1 mM DTT, 2 mM MgCl2, 1 ug poly dI-dC; 10 ng probe, 100-200 ng protein; 30 min room temperature; 5% PAGE 0.5x TBE at 4 C; settings: protein: recombinant; tags: 6xHis (pET28a); label: labelled (32P)
T1 sequence: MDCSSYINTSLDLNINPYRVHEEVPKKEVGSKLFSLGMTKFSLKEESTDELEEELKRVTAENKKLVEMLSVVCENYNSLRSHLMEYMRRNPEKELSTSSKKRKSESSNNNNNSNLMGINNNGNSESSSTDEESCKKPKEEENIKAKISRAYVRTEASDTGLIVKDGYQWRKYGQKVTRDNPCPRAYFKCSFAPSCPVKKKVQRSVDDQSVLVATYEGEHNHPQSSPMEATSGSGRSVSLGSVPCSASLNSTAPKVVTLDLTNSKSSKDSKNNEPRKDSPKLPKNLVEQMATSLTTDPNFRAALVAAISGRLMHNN

[2] = molecular target: T1, His6-CaWRKY40; assay: EMSA; 200 ng protein; competed by 50 molar excess cold probe; 20 mM HEPES pH 7.5, 100 mM KCl, 0.2 mM EDTA, 1 mM DTT, 2 mM MgCl2, 1 ug poly dI-dC; 10 ng probe, 100-200 ng protein; 30 min room temperature; 5% PAGE 0.5x TBE at 4 C; settings: protein: recombinant; tags: 6xHis (pET28a); label: labelled (32P)

B1: pCaMPK9 W-box 1 (dsDNA)
DNA 1: ATTGGTTCAGTTTTGTAGTCAACAAAATCT
DNA 2: AGATTTTGTTGACTACAAAACTGAACCAAT
binding result [1]: binds

B2: pCaMPK9 W-box 2 (dsDNA)
DNA 1: TTAAAATTATTTGTCATCTAAAAGAATCA
DNA 2: TGATTCTTTTAGATGACAAATAATTTTAA
binding result [2]: binds
